Conditions in all cases: both partners purified
In assay [1] the target is T1, UAF1 (USP1-associated factor 1) (human, UniProt Q8TAF3 1-677).
T1 construct: UAF1 (USP1-associated factor 1), human; N-terminal His-3C tag; the methods say tags were removed except from FANCD2, FANCI, USP2 and GST-ubiquitin; source: Sf21 (baculovirus), purified (Ni-NTA, anion exchange, SEC); not shown: His, N-terminal, cleaved
Put plainly: SEC; USP1 and UAF1 alone or together at 15 μM, 15 min on ice; SD200 Increase (10/300); 20 mM Tris pH 8.0, 150 mM NaCl, 5% glycerol, 5 mM DTT; fractions on SDS-PAGE, Coomassie. A general note: Size exclusion chromatography separates by hydrodynamic size, large species first.

The target in assay [2] is T2, UAF1 with an N-terminal Strep tag (human, UniProt Q8TAF3 1-677).
T2 construct: UAF1 (USP1-associated factor 1), human; Strep11 tag and linker GGSGGS were added N-terminal of the His-3C tag; as the Strep tag is used for capture, the His-3C stretch was probably kept too (surmise); also called Strep-tagged UAF1; N-terminal Strep-tagged UAF1; source: Sf21 (baculovirus), purified; not shown: Strep11, N-terminal, kept
Put plainly: pull-down; N-terminal Strep-tagged UAF1 complexed with E. coli USP1, 10 μg bound to MagStrep beads and washed; 10 μg recombinant substrate, 1 h on ice; 50 mM Tris pH 7.5, 120 mM NaCl, 5% glycerol, 1 mM DTT, 0.01% Triton X-100, 0.01% ovalbumin; SDS-PAGE; beads without USP1–UAF1 as control.

Assay [3] concerns the target T3, human PCNA-K164Ub (hsPCNA-Ub) (human | , UniProt P12004 1-261; P0CG48 1-76, K164 monoubiquitinated (isopeptide bond to ubiquitin) | C-terminus linked to K164 of PCNA).
T3 construct: PCNA, human; ubiquitin; Covalent conjugate; also called monoubiquitinated PCNA
Described as above.

The target in assay [4] is T4, human FANCD2 (hsFANCD2), non-ubiquitinated (human, UniProt Q9BXW9 1-1451).
T4 construct: FANCD2 (Fanconi anemia group D2 protein), human, full length; gene synthesised and optimised for Spodoptera frugiperda; His-3C tag; tags were not removed from FANCD2; also called Fanconi anemia group D2 protein; source: Sf21 (baculovirus), purified (Ni-NTA, anion exchange, SEC)
The description is as above.

Data on five molecules can be found in PMC6238601, “Specificity for deubiquitination of monoubiquitinated FANCD2 is driven by the N-terminus of USP1” (Life Science Alliance, 2018).

B1: USP1^ΔNΔ1Δ2 (Δ1–54, Δ229–408, Δ608–737), Sf21-expressed (domain or fragment, human, UniProt O94782 55-785, looked up)
chain: SEIDQVVPAAQSSPINCEKRENLLPFVGLNNLGNTCYLNSILQVLYFCPGFKSGVKHLFNIISRKKEALKDEANQKDKGNCKEDSLASYELICSLQSLIISVEQLQASFLLNPEKYTDELATQPRRLLNTLRELNPMYEGYLQHDAQEVLQCILGNIQETCQLLKKEEVKNVAENEVKPINKGEEQIGFELVEKLFQGQLVLRTRCLECESLTERREDFQDISVPVQEDELSKVEESSEISPEPKTEMKTLRWAISQFASVERIVGEDKYFCENCHHYTEAERSLLFDKMPEVITIHLKCFAASGLEFDCYGGGLSKINTPLLTPLKLSLEEWSTKPTNDSYGLFAVVMHSGITISSGHYTASVKVTDLNSLEQSLKEYEGKWLLFDDSEVKVTEEKDFLNSLSPSTSPTSTPYLLFYKKL
notes: USP1, human; N-terminus (Δ1–54), Insertion 1 (Δ229–408) and Insertion 2 (Δ608–737) deleted in the full-length background; the G670A/G671A site lies in the deleted Insertion 2; also called minimal USP1 catalytic domain; catalytic domain of USP1; source: Sf21 (baculovirus), purified (Ni-NTA, anion exchange, SEC)
As for B1, the binding result in assay [1] is recorded as “binds”.

B2: USP1^ΔNΔ1Δ2 (Δ1–54, Δ229–408, Δ608–737), E. coli-expressed (domain or fragment, human, UniProt O94782 55-785, looked up)
chain: SEIDQVVPAAQSSPINCEKRENLLPFVGLNNLGNTCYLNSILQVLYFCPGFKSGVKHLFNIISRKKEALKDEANQKDKGNCKEDSLASYELICSLQSLIISVEQLQASFLLNPEKYTDELATQPRRLLNTLRELNPMYEGYLQHDAQEVLQCILGNIQETCQLLKKEEVKNVAENEVKPINKGEEQIGFELVEKLFQGQLVLRTRCLECESLTERREDFQDISVPVQEDELSKVEESSEISPEPKTEMKTLRWAISQFASVERIVGEDKYFCENCHHYTEAERSLLFDKMPEVITIHLKCFAASGLEFDCYGGGLSKINTPLLTPLKLSLEEWSTKPTNDSYGLFAVVMHSGITISSGHYTASVKVTDLNSLEQSLKEYEGKWLLFDDSEVKVTEEKDFLNSLSPSTSPTSTPYLLFYKKL
notes: USP1, human; Δ1–54, Δ229–408, Δ608–737; also called E. coli–expressed USP1^ΔNΔ1Δ2; source: E. coli BL21, purified (GSH resin, SEC)
In the case of B2, the binding result in assay [2] is “binds”.

B3: USP1^ΔNΔ1Δ2–UAF1 complex (Strep-tagged UAF1) (complex)
chain 1: SEIDQVVPAAQSSPINCEKRENLLPFVGLNNLGNTCYLNSILQVLYFCPGFKSGVKHLFNIISRKKEALKDEANQKDKGNCKEDSLASYELICSLQSLIISVEQLQASFLLNPEKYTDELATQPRRLLNTLRELNPMYEGYLQHDAQEVLQCILGNIQETCQLLKKEEVKNVAENEVKPINKGEEQIGFELVEKLFQGQLVLRTRCLECESLTERREDFQDISVPVQEDELSKVEESSEISPEPKTEMKTLRWAISQFASVERIVGEDKYFCENCHHYTEAERSLLFDKMPEVITIHLKCFAASGLEFDCYGGGLSKINTPLLTPLKLSLEEWSTKPTNDSYGLFAVVMHSGITISSGHYTASVKVTDLNSLEQSLKEYEGKWLLFDDSEVKVTEEKDFLNSLSPSTSPTSTPYLLFYKKL
chain 2: not shown
notes: USP1, human; Δ1–54, Δ229–408, Δ608–737; as m9; UAF1, human; as m7; Bait complex formed beforehand and held on MagStrep beads; source: E. coli USP1^ΔNΔ1Δ2 complexed with Sf21 Strep-UAF1, both purified; not shown: Strep11, N-terminal, kept
Turning to B3, the binding result in assay [3] is on record as “binds”.

B4: USP1^Δ1Δ2-R22K–UAF1 complex (Strep-tagged UAF1) (complex)
chain 1: MPGVIPSESNGLSRGSPSKKNKLSLKFFQKKETKRALDFTDSQENEEKASEYRASEIDQVVPAAQSSPINCEKRENLLPFVGLNNLGNTCYLNSILQVLYFCPGFKSGVKHLFNIISRKKEALKDEANQKDKGNCKEDSLASYELICSLQSLIISVEQLQASFLLNPEKYTDELATQPRRLLNTLRELNPMYEGYLQHDAQEVLQCILGNIQETCQLLKKEEVKNVAENEVKPINKGEEQIGFELVEKLFQGQLVLRTRCLECESLTERREDFQDISVPVQEDELSKVEESSEISPEPKTEMKTLRWAISQFASVERIVGEDKYFCENCHHYTEAERSLLFDKMPEVITIHLKCFAASGLEFDCYGGGLSKINTPLLTPLKLSLEEWSTKPTNDSYGLFAVVMHSGITISSGHYTASVKVTDLNSLEQSLKEYEGKWLLFDDSEVKVTEEKDFLNSLSPSTSPTSTPYLLFYKKL
chain 2: not shown
notes: USP1, human; Δ229–408, Δ608–737, R22K; as m11; UAF1, human; as m7; source: E. coli USP1^Δ1Δ2-R22K complexed with Sf21 Strep-UAF1, both purified; not shown: Strep11, N-terminal, kept
As for B4, the binding result in assay [4] is recorded as “binds”.

B5: USP1^Δ1Δ2 (Δ229–408, Δ608–737), E. coli-expressed (enzyme, human, UniProt O94782 1-785, looked up)
chain: MPGVIPSESNGLSRGSPSKKNRLSLKFFQKKETKRALDFTDSQENEEKASEYRASEIDQVVPAAQSSPINCEKRENLLPFVGLNNLGNTCYLNSILQVLYFCPGFKSGVKHLFNIISRKKEALKDEANQKDKGNCKEDSLASYELICSLQSLIISVEQLQASFLLNPEKYTDELATQPRRLLNTLRELNPMYEGYLQHDAQEVLQCILGNIQETCQLLKKEEVKNVAENEVKPINKGEEQIGFELVEKLFQGQLVLRTRCLECESLTERREDFQDISVPVQEDELSKVEESSEISPEPKTEMKTLRWAISQFASVERIVGEDKYFCENCHHYTEAERSLLFDKMPEVITIHLKCFAASGLEFDCYGGGLSKINTPLLTPLKLSLEEWSTKPTNDSYGLFAVVMHSGITISSGHYTASVKVTDLNSLEQSLKEYEGKWLLFDDSEVKVTEEKDFLNSLSPSTSPTSTPYLLFYKKL
notes: USP1, human; Insertion 1 (Δ229–408) and Insertion 2 (Δ608–737) deleted; gene synthesised and optimised for E. coli; GST-3C tag from pGEX6P; a few residues of the 3C site may be left after cleavage (surmise); also called E. coli–expressed USP1^Δ1Δ2; source: E. coli BL21, purified (GSH resin, SEC)
For the molecule B5, the binding result in assay [2] was “binds”.
